Target: PKM2 in SW480 cells (human (endogenous in SW480)) (UniProt P14618)
Test: cross-linking; PKM2 cross-linked in SW480 cells expressing MYG1 variants, following ref. 37; SDS-PAGE and western blot

Chain of PKM2 in SW480 cells, P14618 1-531 (enzyme; other documents disagree on this pair) (P14618 whole entry): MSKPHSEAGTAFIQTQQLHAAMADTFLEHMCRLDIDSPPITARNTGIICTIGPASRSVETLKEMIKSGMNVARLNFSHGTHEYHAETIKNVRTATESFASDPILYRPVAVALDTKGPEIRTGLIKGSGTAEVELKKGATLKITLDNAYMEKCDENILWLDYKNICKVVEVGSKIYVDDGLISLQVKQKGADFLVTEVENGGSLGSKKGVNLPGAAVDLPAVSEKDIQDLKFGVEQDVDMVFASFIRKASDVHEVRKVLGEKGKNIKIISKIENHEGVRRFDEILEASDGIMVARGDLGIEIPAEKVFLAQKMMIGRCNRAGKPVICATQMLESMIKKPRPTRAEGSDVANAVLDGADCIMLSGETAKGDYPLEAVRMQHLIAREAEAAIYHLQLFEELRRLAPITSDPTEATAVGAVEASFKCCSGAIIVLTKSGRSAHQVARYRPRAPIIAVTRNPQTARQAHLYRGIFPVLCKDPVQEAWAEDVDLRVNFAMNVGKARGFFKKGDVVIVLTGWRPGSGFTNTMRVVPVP

PKM2 in SW480 cells, P14618 1-531 (enzyme; other documents disagree on this pair)
stoichiometry N: 2

Reference: publication PMC11167044
